Numbered stars: 1 amine (or outer) side, 2 acyl side, 3 side chain; on linkers, the order of the positions; unused ones are H or OH. Bridge positions count the residues as written; N and C are the ends. Square brackets hold non-standard residues; d marks the D form. Ends that are not written are not given here. * marks the point of attachment. TATA = O=C(CC[*:1])N1CN(C(=O)CC[*:2])CN(C(=O)CC[*:3])C1; 1Nal = N[C@@H](Cc1cccc2ccccc12)C(=O)O; 2Nal = N[C@@H](Cc1ccc2ccccc2c1)C(=O)O; Ala(cPent) = N[C@@H](CC1CCCC1)C(=O)O; tBuAla = CC(C)(C)C[C@H](N)C(=O)O; Cba = N[C@@H](CC1CCC1)C(=O)O; Pent4ynoyl = C#CCCC(=O)*; Aib = CC(C)(N)C(=O)O

As usually defined, the Kd is a measure of binding affinity in units of concentration. As usually defined, the Ki is a dissociation constant, usually derived from enzyme kinetics or from competition with a known ligand. A lower Ki goes with higher affinity.

B1: BCY15568 (peptide)
peptide: ACNLQLHNCQWGICA-NH2
modifications: linker 2-9-14 via TATA; also: scaffold TATA, TATB or TBMT
notes: scaffold TATA
B2: BCY15109 (peptide)
peptide: ACNLQLHNCIWGVCA-NH2
modifications: linker 2-9-14 via TATA; also: scaffold TATA, TATB or TBMT
notes: scaffold TATA
B3: BCY15108 (peptide)
peptide: ACDLTTHNCLWGVCA-NH2
modifications: linker 2-9-14 via TATA; also: scaffold TATA, TATB or TBMT
notes: scaffold TATA
B4: BCY16834 (peptide)
peptide: ACK(Pent4ynoyl)LPDYLCGDEYCA-NH2
modifications: linker 2-9-14 via TATA; N-terminus assumed
SMILES: C#CCCC(=O)NCCCC[C@@H]1NC(=O)[C@@H](NC(=O)[C@H](C)N)CSCCC(=O)N2CN3CN(C2)C(=O)CCSC[C@@H](C(=O)N[C@@H](C)C(N)=O)NC(=O)[C@H](Cc2ccc(O)cc2)NC(=O)[C@H](CCC(=O)O)NC(=O)[C@H](CC(=O)O)NC(=O)CNC(=O)[C@H](CSCCC3=O)NC(=O)[C@H](CC(C)C)NC(=O)[C@H](Cc2ccc(O)cc2)NC(=O)[C@H](CC(=O)O)NC(=O)[C@@H]2CCCN2C(=O)[C@H](CC(C)C)NC1=O
notes: scaffold TATA
B5: BCY14456 (peptide)
peptide: ACNLQKPCMKYPCA-NH2
modifications: linker 2-8-13 via TATA; also: scaffold TATA, TATB or TBMT
notes: scaffold TATA
B6: BCY15100 (peptide)
peptide: ACYLPDYLCGDEYCA-NH2
modifications: linker 2-9-14 via TATA; also: scaffold TATA, TATB or TBMT
notes: scaffold TATA
B7: BCY15661 (peptide)
peptide: ACYLPDYLCGDAYCA-NH2
modifications: linker 2-9-14 via TATA; also: cyclised with TATA, TATB or TBMT
notes: scaffold TATA
B8: BCY15655 (peptide)
peptide: ACYLADYLCGDEYCA-NH2
modifications: linker 2-9-14 via TATA; also: cyclised with TATA, TATB or TBMT
notes: scaffold TATA
B9: BCY15662 (peptide)
peptide: ACYLPDYLCGDEACA-NH2
modifications: linker 2-9-14 via TATA; also: cyclised with TATA, TATB or TBMT
notes: scaffold TATA
B10: BCY15653 (peptide)
peptide: ACALPDYLCGDEYCA-NH2
modifications: linker 2-9-14 via TATA; also: cyclised with TATA, TATB or TBMT
notes: scaffold TATA
B11: BCY15659 (peptide)
peptide: ACYLPDYLCADEYCA-NH2
modifications: linker 2-9-14 via TATA; also: cyclised with TATA, TATB or TBMT
notes: scaffold TATA
B12: BCY15648 (peptide)
peptide: ACYLPDW[tBuAla]CGDEYCA-NH2
modifications: linker 2-9-14 via TATA; N-terminus assumed
SMILES: CC(C)C[C@@H]1NC(=O)[C@H](Cc2ccc(O)cc2)NC(=O)[C@@H](NC(=O)[C@H](C)N)CSCCC(=O)N2CN3CN(C2)C(=O)CCSC[C@@H](C(=O)N[C@@H](C)C(N)=O)NC(=O)[C@H](Cc2ccc(O)cc2)NC(=O)[C@H](CCC(=O)O)NC(=O)[C@H](CC(=O)O)NC(=O)CNC(=O)[C@H](CSCCC3=O)NC(=O)[C@H](CC(C)(C)C)NC(=O)[C@H](Cc2c[nH]c3ccccc23)NC(=O)[C@H](CC(=O)O)NC(=O)[C@@H]2CCCN2C1=O
notes: scaffold TATA
B13: BCY15649 (peptide)
peptide: ACYLPDW[Cba]CGDEYCA-NH2
modifications: linker 2-9-14 via TATA
notes: scaffold TATA
B14: BCY15634 (peptide)
peptide: Ac-CYLPDYLCGDEYC-NH2
modifications: linker 1-8-13 via TATA; not fully specified
notes: scaffold TATA
B15: BCY15642 (peptide)
peptide: ACYL[Aib]DYLCGDEYCA-NH2
modifications: linker 2-9-14 via TATA
notes: scaffold TATA
B16: BCY15635 (peptide)
peptide: Ac-ACYLPDYLCGDEYCA-NH2
modifications: linker 2-9-14 via TATA
notes: scaffold TATA
B17: BCY15643 (peptide)
peptide: ACYLPD[1Nal]LCGDEYCA-NH2
modifications: linker 2-9-14 via TATA; N-terminus assumed
SMILES: CC(C)C[C@@H]1NC(=O)[C@H](Cc2cccc3ccccc23)NC(=O)[C@H](CC(=O)O)NC(=O)[C@@H]2CCCN2C(=O)[C@H](CC(C)C)NC(=O)[C@H](Cc2ccc(O)cc2)NC(=O)[C@@H](NC(=O)[C@H](C)N)CSCCC(=O)N2CN3CN(C2)C(=O)CCSC[C@@H](C(=O)N[C@@H](C)C(N)=O)NC(=O)[C@H](Cc2ccc(O)cc2)NC(=O)[C@H](CCC(=O)O)NC(=O)[C@H](CC(=O)O)NC(=O)CNC(=O)[C@H](CSCCC3=O)NC1=O
notes: scaffold TATA
B18: BCY16130 (peptide)
peptide: ACY[Ala(cPent)]PDYLCGDEYCA-NH2
modifications: linker 2-9-14 via TATA
notes: scaffold TATA
B19: BCY15644 (peptide)
peptide: ACYLPD[2Nal]LCGDEYCA-NH2
modifications: linker 2-9-14 via TATA; N-terminus assumed
SMILES: CC(C)C[C@@H]1NC(=O)[C@H](Cc2ccc3ccccc3c2)NC(=O)[C@H](CC(=O)O)NC(=O)[C@@H]2CCCN2C(=O)[C@H](CC(C)C)NC(=O)[C@H](Cc2ccc(O)cc2)NC(=O)[C@@H](NC(=O)[C@H](C)N)CSCCC(=O)N2CN3CN(C2)C(=O)CCSC[C@@H](C(=O)N[C@@H](C)C(N)=O)NC(=O)[C@H](Cc2ccc(O)cc2)NC(=O)[C@H](CCC(=O)O)NC(=O)[C@H](CC(=O)O)NC(=O)CNC(=O)[C@H](CSCCC3=O)NC1=O
notes: scaffold TATA
B20: BCY15633 (peptide)
peptide: CYLPDYLCGDEYC-NH2
modifications: linker 1-8-13 via TATA; also: scaffold TATA, TATB or TBMT
notes: scaffold TATA
B21: BCY16134 (peptide)
peptide: [dA]CYLPDYLCGDEYC-NH2
modifications: linker 2-9-14 via TATA; N-terminus assumed
SMILES: CC(C)C[C@@H]1NC(=O)[C@H](Cc2ccc(O)cc2)NC(=O)[C@H](CC(=O)O)NC(=O)[C@@H]2CCCN2C(=O)[C@H](CC(C)C)NC(=O)[C@H](Cc2ccc(O)cc2)NC(=O)[C@@H](NC(=O)[C@@H](C)N)CSCCC(=O)N2CN3CN(C2)C(=O)CCSC[C@H](NC1=O)C(=O)NCC(=O)N[C@@H](CC(=O)O)C(=O)N[C@@H](CCC(=O)O)C(=O)N[C@@H](Cc1ccc(O)cc1)C(=O)N[C@H](C(N)=O)CSCCC3=O
notes: scaffold TATA

T1 sequence (O76036 22-255 limits assumed): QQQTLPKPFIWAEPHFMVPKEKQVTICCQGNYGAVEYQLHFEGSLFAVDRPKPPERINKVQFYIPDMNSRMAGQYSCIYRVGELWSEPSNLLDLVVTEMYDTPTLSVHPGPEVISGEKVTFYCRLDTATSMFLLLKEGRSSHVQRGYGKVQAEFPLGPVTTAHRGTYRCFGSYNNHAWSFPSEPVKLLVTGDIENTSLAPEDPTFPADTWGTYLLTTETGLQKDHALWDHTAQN
T2 sequence (O76036 22-255 limits assumed): as above

One assay concerns the target T1, Human NKp46 Fc tag (Acro Biosystems, NC1-H5257) (human, UniProt O76036 22-255).
T1 construct: bought; also called Fc-tagged human NKp46
Nature of the assay: SPR Method 1 and/or 2. A digest of the protocol: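 Fc-tagged human NKp46 captured on anti-human IgG surface (500–1000 RU); compounds run in PBS-P+ with 2% DMSO at 25 °C, 50 μL/min, 60 s association, 400 s dissociation. Double-referenced, DMSO-corrected; KD from steady-state 1:1 fit, kinetic constants from kinetic 1:1 fit where appropriate.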
As to B1, the Kd is 69 nM.

As for B2, the Kd came out at 274 nM.

Molecule B3 displayed a Kd of 642 nM.

For B4, the Kd was 83 nM. Compared with the last molecule, the Kd is about 7.7-fold lower.

B5 came in with a Kd of 703 nM.

A further assay addresses T2, Human NKp46 His tag (Acro Biosystems, NC1-H52H4) (human, UniProt O76036 22-255).
T2 construct: bought; also called human NKp46-his tagged protein
Nature of the assay: FP competition vs BCY15035. As for the experimental part:
The untagged competitor peptides were diluted in assay buffer 25 mM HEPES, 100 mM NaCl, 0.01% P20, pH 7.4. to a top concentration of 5000 nM and diluted 2-fold in 11 steps. The human NKp46-his tagged protein (AcroBiosystems) was diluted to 40 nM final concentration in the assay. […] The total volume of 25 μL was prepared in black walled and flat-bottomed low binding low volume 384 well plates. Measurements were performed using Envision (PerkinElmer) equipped with the excitation filter FITC FP 480, emission filter FITC FP P-pol 535 and 2nd emission filter FITC FP S-pol 535 and set to 30 flashes. The gain was set in a well containing tracer alone without target protein.
As for B6, the Ki is 49 nM. In other words, the double-digit nanomolar range.

B7 registered a Ki of 1780 nM.

B8 displayed a Ki of 324 nM. This Ki is about 5.5-fold lower than that of the molecule before.

B9 registered a Ki of 672 nM.

Molecule B10 returned a Ki of 411 nM. Against the preceding molecule, the Ki is about 1.6-fold lower.

B11: the inhibition constant Ki is 226 nM.

With B12, the Ki came to 1620 nM.

For B13, the affinity, expressed as Ki, was 391 nM.

B14 had an inhibitory constant (Ki) of 98 nM.

The molecule B15 gave an inhibition constant (Ki) of 910 nM. This Ki lies about 9.3-fold higher than the previous one.

For B16, the affinity, expressed as Ki, was 61 nM. This Ki lies about 15-fold lower than the previous one.

Turning to B17, the affinity corresponds to a Ki of 755 nM.

For the molecule B18, the affinity corresponds to a Ki of 321 nM.

For the molecule B19, the Ki was 159 nM. This Ki lies about 2-fold lower than the previous one.

Regarding B20, the affinity, expressed as Ki, was 86 nM.

In turn, B21 showed a Ki of 77 nM.

(Values after patent publication US20240108738A1 (Bicycle, published 2024).)
